Data on 41 sequences can be found in the nanobody polyreactivity screen of Harvey et al. (2022).

This data set can be described thus: yeast display, Sf9 membrane polyspecificity reagent, FACS + sequencing; frameworks hold sequencing errors. A digest of the protocol: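 Polyreactivity labels are assigned by the sorting gate from which each nanobody was recovered. The gates were low and high (top ~1%), set on anti-HA fluorescence for expression and streptavidin fluorescence for reagent binding. Before sorting, galactose-induced (36–48 hours) yeast display cells were stained for 1 hour at 4 °C with 10% biotinylated, detergent-solubilized Sf9 membrane reagent.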
For the sequence “QVQLVESGGGLVQAGGSLRLSCAASVRIFATNAMGWSRQAPGKERELVARISRRGGSTNYADSVKGRFTISRDNAKNTVYLQMNSLKPEDTAVYYCNVSFYWYRWYALLDYWGQVTQVTVSS”, the “polyreactivity (PSR sort gate)” value was “high polyreactivity”.

Consider “QVQLVESGGGLVQAGGSLRLSCAASVRIFFRYAMGWYRQAPGKERELVAAIRKSGGSTYYADSVKGRFTISRDNAKNTVYFQMNSLKPEDTAVYYCAADVYYYYGRKYNYWGQGTQVTVSS”, for which the “polyreactivity (PSR sort gate)” value is recorded as “low polyreactivity”.

In the case of “QVQLVESGGGLVQAGGSLRLSCAASVRIFGSNVMGWYRQAPGKERELVASISSGGTTYYADSVKGLFTISRDNAKNTVYLQMNSLKPEDTAGYYCAKQWTRIYQYRWYPGTRTGYDYWGHGTQVTVSS”, the “polyreactivity (PSR sort gate)” value is “high polyreactivity”.

Regarding “QVQLVESGGGLVQAGGSLRLSCAASVRIFGSNVMGWYRQAPGKERELVASISSGGTTYYADSVKGRFTISRDNAKNTVYLHMNSLKPEDTAVYYCAKQWTRIYQYRWYPGTRTGYDYWGQGTQVTVSS”, the “polyreactivity (PSR sort gate)” value is reported as “high polyreactivity”.

Regarding “QVQLVESGGGLVQAGGSLRLSCAASVRIFQRNVMGWYRQAPGKEWELVATINWSGASTYYADSVKGRFTISRDNAKNTVYLQMNSLTPEDTAVYYCAKDGHYPLVYLAFDYWGQGTQVTVSS”, the “polyreactivity (PSR sort gate)” value was “low polyreactivity”.

In the case of “QVQLVESGGGLVQAGGSLRLSCAASVRIFYGYTMGWYRQAPGKERELVASIDYSTGRTYYADSVKGRFTISRDNAKNTVYLLMNSLKPEDTAVYYCNADPNYSFLRYDYWGQGTQVTVSS”, the “polyreactivity (PSR sort gate)” value is listed as “high polyreactivity”.

Regarding “QVQLVESGGGLVQAGGSLRLSCAASVRNYGINVMVWYRQAPGKERELVAAISYRTGSTYYADSVKGRFTISRDNAKNTVYLQMNSLKPEDTAVYYCDALRSIRTAWYDYWGQGTQVTVSS”, the “polyreactivity (PSR sort gate)” value was “high polyreactivity”.

With “QVQLVESGGGLVQAGGSLRLSCAASVRTFSAYAMGCSRQAPGKERELVARITSVDSTNYSDSVNGRFTFSRDNAKNNVYLQMNSLKPEDTAVYSCNATFGYPFVDYDDYWGQGTQVTVSS”, the “polyreactivity (PSR sort gate)” value is reported as “low polyreactivity”.

As to “QVQLVESGGGLVQAGGSLRLSCAASVRTYGFNTMGSYRQAPGKERELVAANTTSGGSTYYADSVKGRFTISRDNAKNTVYLQMNSLKPDDSAVYYCAKDYYSKHFPIYEYWGQGTQVTVSS”, the “polyreactivity (PSR sort gate)” value is reported as “low polyreactivity”.

In the case of “QVQLVESGGGLVQAGGSLRLSCAASVSIFEWYAMGRYRQAHGKERELVAAINSGGSTYYADSVKGRFTISRDNAKNTVYLQMNSLKPEDTAVYYCAAGTQAHAYVVRPIEMDYWGQGTQVTVSS”, the “polyreactivity (PSR sort gate)” value is “low polyreactivity”.

For the sequence “QVQLVESGGGLVQAGGSLRLSCAASVSIFVRNAMGWYRPAPGKERELGAADSVKGRFTISRDNAKNTVYLQMNSLKPEDTAVYYCAADEWIVHDGYYSSYYYWGQGTQVTVSS”, the “polyreactivity (PSR sort gate)” value is “low polyreactivity”.

For “QVQLVESGGGLVQAGGSLRLSCAASVSIMARNAMVWYRQAPGKERELVAAISNSGSTNYADSVKGRFTISRDNAKNTVYLQMNSLKPEDTAVYYCAKDADHGWFEYDYWGQGTQVTVSS”, the “polyreactivity (PSR sort gate)” value was “low polyreactivity”.

With “QVQLVESGGGLVQAGGSLRLSCAASVSNIKYNAMGWYRQAPGKERELVAAISSSGGTTYYADSVKGRFTISRDNAKNTVYLQMNSLKPEDTAVYYCNKYFRAGNGYGEEDYWGQGTQVTVSS”, the “polyreactivity (PSR sort gate)” value is listed as “high polyreactivity”.

Turning to “QVQLVESGGGLVQAGGSLRLSCAASVSTFDDNAMGWYIQAPGKERELVASITYRGGSTYYADSVKGRFTISRDNAKNTVYLQMNSLKPEDTAVYYCNADYTGAEYDYWGQGTQVTVSS”, the “polyreactivity (PSR sort gate)” value was “low polyreactivity”.

Consider “QVQLVESGGGLVQAGGSLRLSCAASVSTFKPYAMGWYRQAPGKERELVSAISGSGGSTYYADSVKGRFTISRDNAKNTVYLQMNSLKPEDTAVYYCAARFYVSYYYFGYEYWGQGTQVTVSS”, for which the “polyreactivity (PSR sort gate)” value was “high polyreactivity”.

As for “QVQLVESGGGLVQAGGSLRLSCAASVSTFPGYAMGWYRQAPGKERELVAAISTSGGRTYYADSVKGRFTISRDNAKNTVYLQMNSLKPEDTAVYYCAARDTRSPYSGTQVEYWGQGTQVTVSS”, the “polyreactivity (PSR sort gate)” value is “low polyreactivity”.

As to “QVQLVESGGGLVQAGGSLRLSCAASVSTFYSYVMGWSRQAPGKETELVAAITYSGGRTYYADSVKGRFTISRDNAKNTVYLQMNSLKPEDTAVYYCAKRVFNYQRYDYWGQGTQVTVSS”, the “polyreactivity (PSR sort gate)” value was “high polyreactivity”.

As for “QVQLVESGGGLVQAGGSLRLSCAASVYIFQSNVMGWYRQAPGKESELLAAITVSGGSTYYADSVKGRFTISRDNGKNTVYLQMKSLKPEDTAVYYCNKVGVKFRVDGWYDYWGQATQVTVSS”, the “polyreactivity (PSR sort gate)” value is on record as “high polyreactivity”.

On to “QVQLVESGGGLVQAGGSLRLSCAATGFIFDSYAMGWYRQAPGKERELVAAISWSGGRTYYADSVKGRFTISRDNAKNTVYLQMNSLKPEDTAVYYCNVRTKLSTSYDYWGQGTQVTVSS”, for which the “polyreactivity (PSR sort gate)” value is reported as “high polyreactivity”.

With “QVQLVESGGGLVQAGGSLRLSCAATGFIFPINAMGWYRQAPGKERELVAAITGGGSTSYADSVKGRFTISRDNAKNTVYLQMNSLKPEDTAVYYCATDRLTYTKYGYWGQGTQVTVSS”, the “polyreactivity (PSR sort gate)” value is listed as “low polyreactivity”.

As for “QVQLVESGGGLVQAGGSLRLSCAATGFIFSYYAMGWYRQAPGKERELVATITSGGSTYYADSVKGRFTISRDNAKNTVYLQMNSLKPEDTAVYYCNADWYWRVYWGQGTQVTVSS”, the “polyreactivity (PSR sort gate)” value is “high polyreactivity”.

For “QVQLVESGGGLVQAGGSLRLSCAATGFIFYEYPMGWYRQAPGKERELVASINSDGRTDYADSVKGRFTISRDNAKNTVYLQMNSLKPEDTAVYYCAAALGYYGRHPYDYWGQGTQVTVSS”, the “polyreactivity (PSR sort gate)” value was “low polyreactivity”.

In the case of “QVQLVESGGGLVQAGGSLRLSCAATGFTFYTYAMGWYRQATGKETELVADISSGGSTNYADSVKGRFRISRDNAKNTVYLQMNSLIPEDTAVYYCSDDYYFLDWYDYWGQGTQVTVSS”, the “polyreactivity (PSR sort gate)” value is on record as “low polyreactivity”.

“QVQLVESGGGLVQAGGSLRLSCAATGGTFNVYAMGWYRQAPGKESELVAAIRWSGGSTYYADSVKGRFTISRDNAKNTVYLQMNSLKPEDTAVYYCAARFYGRSQTYGSWGLGTQVTVSS”: the “polyreactivity (PSR sort gate)” value is reported as “high polyreactivity”.

“QVQLVESGGGLVQAGGSLRLSCAATGGTFYVYAMGWYRQAPGKERELVARITWRGGRTYYADSVKGRFTISRDNAKNTVYLQMYSLKPEDTAVYYCNAEQYSQFDYWGQGTQVTVSS”: the “polyreactivity (PSR sort gate)” value was “high polyreactivity”.

Consider “QVQLVESGGGLVQAGGSLRLSCAATGIIFDSYTMGWYRQAPGKERELVAAISVSGGSTYYADSVKVRFTISRDNAKNTVYLQMNSLKPEDTAVYYCAARGYAFNYMWPFNYWGQGTQVTVSS”, for which the “polyreactivity (PSR sort gate)” value is recorded as “low polyreactivity”.

Consider “QVQLVESGGGLVQAGGSLRLSCAATGIIFKRYTMGWYRQAPGKERELVATINSGTRTYADSVKGRFTISRDNAKNTVYLQMNSLKPEDTAVYYCARRGYYYDYWGLGTQVTVSS”, for which the “polyreactivity (PSR sort gate)” value is given as “high polyreactivity”.

Consider “QVQLVESGGGLVQAGGSLRLSCAATGITFEYNAMGWYRQAPGKERELVAAISLSSGSTYYADSVKGRFTISRDNAKNTVYLQMNSLKPEDTAVYYCNADTIIYEGGYWGQGTQVTVSS”, for which the “polyreactivity (PSR sort gate)” value is “low polyreactivity”.

“QVQLVESGGGLVQAGGSLRLSCAATGLIFRSYAMGWYRQAPGKDRELVARISIRGGSTYYADSVKGRFTISRDNAKNTGSLQMNSLKPEDTAVYYCAAVGSFRGYRYDYWGQGTQVTVSS”: the “polyreactivity (PSR sort gate)” value is recorded as “high polyreactivity”.

With “QVQLVESGGGLVQAGGSLRLSCAATGLIFSLYAMGWYRQAPGKERELVAAISASDGSTYYADSVKGRFTISRDNAKNTVYLQMNSLKPEDTAVYYCAADSRPTQEYDYWGQGTQVTVSS”, the “polyreactivity (PSR sort gate)” value is “low polyreactivity”.

Consider “QVQLVESGGGLVQAGGSLRLSCAATGLIIRYYAMGWYRQAPGKEREFVAAITWNGGSTYADSVKGRFTISRDNAKNTVYLQMNSLKPEDTAVYYSAADLSYWDDFDYWGQGTQVTVSS”, for which the “polyreactivity (PSR sort gate)” value is listed as “low polyreactivity”.

On to “QVQLVESGGGLVQAGGSLRLSCAATGLIIYRNAMGWYRQAPGKEREFVAAISYSGGSTSYADSVKGRLTISRDNAKNTVYLQMNSLKPEDTAVYYCAVDQSRGWFYLYYYWGQGTQVTVSS”, for which the “polyreactivity (PSR sort gate)” value is recorded as “low polyreactivity”.

Regarding “QVQLVESGGGLVQAGGSLRLSCAATGMIYERNAMGWYRQAPGKERELVAAITRSGSRTYYADSVKGRFTISRDNAKNTVYLQMNSLKPEDTAVYYCAKRSGYRAHYGYWGQGTQVTVSS”, the “polyreactivity (PSR sort gate)” value was “high polyreactivity”.

For “QVQLVESGGGLVQAGGSLRLSCAATGNIFTPYTMGWYRQAPGKERELVASINNAGTTKYADSVKGRFTISRDNAKTTVYLQMNSLKPEDTAVYYCAAQRRHALSSYPKHYYWGQGTQVTVSS”, the “polyreactivity (PSR sort gate)” value was “low polyreactivity”.

Take “QVQLVESGGGLVQAGGSLRLSCAATGRIFHRYAMGWYRQAPGKEREFVAAITYSTGTTYYADSVKGRFTISRDNAKNTVYLQMNSLKPEDTAVYYCAKVSRFWHKSWFAYGYDYWGQGTQVTVSS”: the “polyreactivity (PSR sort gate)” value is “low polyreactivity”.

For the sequence “QVQLVESGGGLVQAGGSLRLSCAATGRIFHSNAMGWYRQAPGKERELVAVITKNGGSTYYADSVKGRFTISRDNAKNTVYLQMNSLKPEDTAVYYCNKRAQYTYYGRDYWGQGTQVTVSS”, the “polyreactivity (PSR sort gate)” value is “high polyreactivity”.

Consider “QVQLVESGGGLVQAGGSLRLSCAATGRIFNPNAMGWYRQAPGKERELVAAITSGDSTNYADSVKGRFTISRDNAKNTVYLQMNSLKPEDTAVYYCAAGPSYRPPWLRQGGYDYWGQGTQVTVSS”, for which the “polyreactivity (PSR sort gate)” value is given as “low polyreactivity”.

Consider “QVQLVESGGGLVQAGGSLRLSCAATGRIFTYMGWYRQAPGKERELVAGISWRGTSTYYADSVKGRFTISRDNAKNTVYLQMNSLKPEDTAVYYCAARWAYHVRGDYWGQGTQVTVSS”, for which the “polyreactivity (PSR sort gate)” value was “low polyreactivity”.

Turning to “QVQLVESGGGLVQAGGSLRLSCAATGRIVRGNAMGWYRQAPGKERELVAAISTRGGRTYYADSVKGRFTISRDNAKNTVYLQMTSLKPQDTAVYYCNKGDSASSLDYWGQGTQVTVSS”, the “polyreactivity (PSR sort gate)” value was “high polyreactivity”.

With “QVQLVESGGGLVQAGGSLRLSCAATGRNFRYNAIGWYRQATGKERELVATISRGGGSTYYADSVKGRFTISRDNAQNTVYLQMNSLKPEDTAVYYCATRYYQDIVGYSRYDYWGQGTQVTVSS”, the “polyreactivity (PSR sort gate)” value is reported as “high polyreactivity”.

Consider “QVQLVESGGGLVQAGGSLRLSCAATGRTFAVYAMGWYRQAPGKERELVAAISSGGSTYYADSVKGRFTIARDNAKNTVYLQMNSLKPEDTAVYYCTARWGYRRGYWGQGTQVTVSS”, for which the “polyreactivity (PSR sort gate)” value was “high polyreactivity”.
